From PMC9666304, “Quinone binding site in a type VI sulfide:quinone oxidoreductase” (Applied Microbiology and Biotechnology, 2022) come the findings set out here.

One series has as its target T1, TrSqrF; SqrF WT (Thiocapsa roseopersicina, UniProt A0A1Z2RRG1).
T1 sequence (A0A1Z2RRG1 1-375): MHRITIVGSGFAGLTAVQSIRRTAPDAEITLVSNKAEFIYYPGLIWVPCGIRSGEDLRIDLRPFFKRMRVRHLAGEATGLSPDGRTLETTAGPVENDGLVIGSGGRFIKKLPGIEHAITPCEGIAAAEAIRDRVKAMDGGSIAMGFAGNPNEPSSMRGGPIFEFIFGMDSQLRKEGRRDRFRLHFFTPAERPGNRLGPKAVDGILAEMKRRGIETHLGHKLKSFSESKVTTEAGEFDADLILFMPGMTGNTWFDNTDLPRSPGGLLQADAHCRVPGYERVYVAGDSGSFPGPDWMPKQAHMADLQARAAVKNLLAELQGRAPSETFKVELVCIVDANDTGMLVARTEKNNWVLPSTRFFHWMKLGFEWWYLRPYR
In words: UV-visible absorption of purified protein; in-gel FAD fluorescence. In kind it is binding. The note with it: co-purified cofactor.

Substrate in series [1]: CC1=C(C)C(=O)C(C)=C(C)C1=O
In words: purified protein. To be noted: 200 µM sulfide, 50 mM Tris-HCl pH 8.0, 25 °C, anaerobic. In kind it is biochemical, Thiocapsa roseopersicina.

Substrate in series [2]: CCCCCCCCCCC1=C(C)C(=O)C(OC)=C(OC)C1=O
In words: purified protein. To be noted: 200 µM sulfide, 50 mM Tris-HCl pH 8.0, 25 °C, anaerobic. It counts as biochemical, Thiocapsa roseopersicina.

With `Cc1cc2nc3c(=O)[nH]c(=O)nc-3n(C[C@H](O)[C@H](O)[C@H](O)COP(=O)(O)OP(=O)(O)OC[C@H]3O[C@@H](n4cnc5c(N)ncnc54)[C@H](O)[C@@H]3O)c2cc1C` [FAD, flavin adenine dinucleotide], the “UV-visible absorption of purified protein; in-gel FAD fluorescence” value at TrSqrF; SqrF WT is given as “Absorption maxima at these wavelengths indicated that all TrSqrF variants contained the FAD cofactor”.

B1: SqrF CTD (Thiocapsa roseopersicina) (protein)
chain: MHRITIVGSGFAGLTAVQSIRRTAPDAEITLVSNKAEFIYYPGLIWVPCGIRSGEDLRIDLRPFFKRMRVRHLAGEATGLSPDGRTLETTAGPVENDGLVIGSGGRFIKKLPGIEHAITPCEGIAAAEAIRDRVKAMDGGSIAMGFAGNPNEPSSMRGGPIFEFIFGMDSQLRKEGRRDRFRLHFFTPAERPGNRLGPKAVDGILAEMKRRGIETHLGHKLKSFSESKVTTEAGEFDADLILFMPGMTGNTWFDNTDLPRSPGGLLQADAHCRVPGYERVYVAGDSGSFPGPDWMPKQAHMADLQARAAVKNLLAELQGRAPSETFKVELVCIVDANDTGMLVARTEKNNWVLPST
notes: C-terminal alpha-helix deletion, stop codons after Thr356; N-terminal StrepII tag, expressed in T. roseopersicina FOQRON
Regarding B1, in the series “purified protein [1]”, the Michaelis constant (Km) was determined as 70.71 ± 44.78 µM, the kcat amounted to 0.96 ± 0.24 s⁻¹ and the kcat/Km was 14000 M⁻¹ s⁻¹. Also, in “purified protein [2]”, the Michaelis constant (Km) worked out at 18.99 ± 0.67 µM, the kcat is 4.9 ± 0.8 s⁻¹ and the kcat/Km amounted to 268000 M⁻¹ s⁻¹.

B2: TrSqrF; SqrF WT (Thiocapsa roseopersicina) (protein)
chain: MHRITIVGSGFAGLTAVQSIRRTAPDAEITLVSNKAEFIYYPGLIWVPCGIRSGEDLRIDLRPFFKRMRVRHLAGEATGLSPDGRTLETTAGPVENDGLVIGSGGRFIKKLPGIEHAITPCEGIAAAEAIRDRVKAMDGGSIAMGFAGNPNEPSSMRGGPIFEFIFGMDSQLRKEGRRDRFRLHFFTPAERPGNRLGPKAVDGILAEMKRRGIETHLGHKLKSFSESKVTTEAGEFDADLILFMPGMTGNTWFDNTDLPRSPGGLLQADAHCRVPGYERVYVAGDSGSFPGPDWMPKQAHMADLQARAAVKNLLAELQGRAPSETFKVELVCIVDANDTGMLVARTEKNNWVLPSTRFFHWMKLGFEWWYLRPYR
On to B2, for which, in the series “purified protein [1]”, the Michaelis constant (Km) was 27.39 ± 2.47 µM, the kcat turned out to be 1.25 ± 0.04 s⁻¹ and the kcat/Km was found to be 46000 M⁻¹ s⁻¹. In addition, in the series “purified protein [2]”, the Km came out at 24.47 ± 6.42 µM, the kcat turned out to be 8.37 ± 0.33 s⁻¹ and the kcat/Km came out at 342000 M⁻¹ s⁻¹.

B3: TrSqrF; SqrF WT (Thiocapsa roseopersicina; F366A) (protein)
chain: MHRITIVGSGFAGLTAVQSIRRTAPDAEITLVSNKAEFIYYPGLIWVPCGIRSGEDLRIDLRPFFKRMRVRHLAGEATGLSPDGRTLETTAGPVENDGLVIGSGGRFIKKLPGIEHAITPCEGIAAAEAIRDRVKAMDGGSIAMGFAGNPNEPSSMRGGPIFEFIFGMDSQLRKEGRRDRFRLHFFTPAERPGNRLGPKAVDGILAEMKRRGIETHLGHKLKSFSESKVTTEAGEFDADLILFMPGMTGNTWFDNTDLPRSPGGLLQADAHCRVPGYERVYVAGDSGSFPGPDWMPKQAHMADLQARAAVKNLLAELQGRAPSETFKVELVCIVDANDTGMLVARTEKNNWVLPSTRFFHWMKLGAEWWYLRPYR
On to B3, for which, in the series “purified protein [1]”, the Km worked out at 46.19 ± 2.53 µM, the turnover number (kcat) came out at 0.26 ± 0.01 s⁻¹ and the kcat/Km was 6000 M⁻¹ s⁻¹. For the same molecule, in the series “purified protein [2]”, the Km is 9.38 ± 1.97 µM, the kcat is 1.97 ± 0.28 s⁻¹ and the catalytic efficiency (kcat/Km) turned out to be 210000 M⁻¹ s⁻¹.

B4: TrSqrF; SqrF WT (Thiocapsa roseopersicina; V331F) (protein)
chain: MHRITIVGSGFAGLTAVQSIRRTAPDAEITLVSNKAEFIYYPGLIWVPCGIRSGEDLRIDLRPFFKRMRVRHLAGEATGLSPDGRTLETTAGPVENDGLVIGSGGRFIKKLPGIEHAITPCEGIAAAEAIRDRVKAMDGGSIAMGFAGNPNEPSSMRGGPIFEFIFGMDSQLRKEGRRDRFRLHFFTPAERPGNRLGPKAVDGILAEMKRRGIETHLGHKLKSFSESKVTTEAGEFDADLILFMPGMTGNTWFDNTDLPRSPGGLLQADAHCRVPGYERVYVAGDSGSFPGPDWMPKQAHMADLQARAAVKNLLAELQGRAPSETFKVELFCIVDANDTGMLVARTEKNNWVLPSTRFFHWMKLGFEWWYLRPYR
Turning to B4, in the series “purified protein [1]”, the Km turned out to be 40.23 ± 7.36 µM, the kcat was 0.72 ± 0.02 s⁻¹ and the kcat/Km is 18000 M⁻¹ s⁻¹. Further, in the series “purified protein [2]”, the Michaelis-Menten constant (Km) stood at 12.33 ± 0.86 µM, the turnover number (kcat) was found to be 3.64 ± 1.06 s⁻¹ and the kcat/Km stood at 295000 M⁻¹ s⁻¹.

B5: TrSqrF; SqrF WT (Thiocapsa roseopersicina; V331A) (protein)
chain: MHRITIVGSGFAGLTAVQSIRRTAPDAEITLVSNKAEFIYYPGLIWVPCGIRSGEDLRIDLRPFFKRMRVRHLAGEATGLSPDGRTLETTAGPVENDGLVIGSGGRFIKKLPGIEHAITPCEGIAAAEAIRDRVKAMDGGSIAMGFAGNPNEPSSMRGGPIFEFIFGMDSQLRKEGRRDRFRLHFFTPAERPGNRLGPKAVDGILAEMKRRGIETHLGHKLKSFSESKVTTEAGEFDADLILFMPGMTGNTWFDNTDLPRSPGGLLQADAHCRVPGYERVYVAGDSGSFPGPDWMPKQAHMADLQARAAVKNLLAELQGRAPSETFKVELACIVDANDTGMLVARTEKNNWVLPSTRFFHWMKLGFEWWYLRPYR
For B5, in “purified protein [2]”, the Km is 18.99 ± 6.10 µM, the turnover number (kcat) stood at 2.47 ± 0.33 s⁻¹ and the catalytic efficiency (kcat/Km) amounted to 130000 M⁻¹ s⁻¹.

B6: TrSqrF; SqrF WT (Thiocapsa roseopersicina; I333F) (protein)
chain: MHRITIVGSGFAGLTAVQSIRRTAPDAEITLVSNKAEFIYYPGLIWVPCGIRSGEDLRIDLRPFFKRMRVRHLAGEATGLSPDGRTLETTAGPVENDGLVIGSGGRFIKKLPGIEHAITPCEGIAAAEAIRDRVKAMDGGSIAMGFAGNPNEPSSMRGGPIFEFIFGMDSQLRKEGRRDRFRLHFFTPAERPGNRLGPKAVDGILAEMKRRGIETHLGHKLKSFSESKVTTEAGEFDADLILFMPGMTGNTWFDNTDLPRSPGGLLQADAHCRVPGYERVYVAGDSGSFPGPDWMPKQAHMADLQARAAVKNLLAELQGRAPSETFKVELVCFVDANDTGMLVARTEKNNWVLPSTRFFHWMKLGFEWWYLRPYR
Take B6: in “purified protein [1]”, the Km came to 102.7 ± 69.9 µM, the kcat was determined as 0.72 ± 0.21 s⁻¹ and the catalytic efficiency (kcat/Km) is 7000 M⁻¹ s⁻¹. In the series “purified protein [2]”, the Michaelis-Menten constant (Km) was 13.98 ± 7.20 µM, the kcat came out at 1.2 ± 0.48 s⁻¹ and the kcat/Km amounted to 86000 M⁻¹ s⁻¹.

B7: TrSqrF; SqrF WT (Thiocapsa roseopersicina; F366Y) (protein)
chain: MHRITIVGSGFAGLTAVQSIRRTAPDAEITLVSNKAEFIYYPGLIWVPCGIRSGEDLRIDLRPFFKRMRVRHLAGEATGLSPDGRTLETTAGPVENDGLVIGSGGRFIKKLPGIEHAITPCEGIAAAEAIRDRVKAMDGGSIAMGFAGNPNEPSSMRGGPIFEFIFGMDSQLRKEGRRDRFRLHFFTPAERPGNRLGPKAVDGILAEMKRRGIETHLGHKLKSFSESKVTTEAGEFDADLILFMPGMTGNTWFDNTDLPRSPGGLLQADAHCRVPGYERVYVAGDSGSFPGPDWMPKQAHMADLQARAAVKNLLAELQGRAPSETFKVELVCIVDANDTGMLVARTEKNNWVLPSTRFFHWMKLGYEWWYLRPYR
Turning to B7, in the series “purified protein [1]”, the Michaelis-Menten constant (Km) is 79.30 ± 14.68 µM, the kcat worked out at 0.57 ± 0.08 s⁻¹ and the catalytic efficiency (kcat/Km) worked out at 7000 M⁻¹ s⁻¹. Besides, in “purified protein [2]”, the Km worked out at 10.03 ± 1.39 µM, the turnover number (kcat) is 3.17 ± 0.82 s⁻¹ and the kcat/Km was determined as 316000 M⁻¹ s⁻¹.
